From article doi:10.1101/774158 come the findings set out here.

One data set has as its target CDA-ZnF-KLF1 (mouse, UniProt P46099 275-358, E321K). In words: EMSA. (In EMSA bound probe runs differently from free probe, usually more slowly.)
A further data set deals with WT-ZnF-KLF1 (mouse, UniProt P46099 275-358). The data set is described as follows: EMSA.
Sequence of WT-ZnF-KLF1 (P46099 275-358): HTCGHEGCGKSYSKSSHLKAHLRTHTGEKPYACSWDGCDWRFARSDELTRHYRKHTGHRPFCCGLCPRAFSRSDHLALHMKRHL

Sequence of CDA-ZnF-KLF1 (P46099 275-358 E321K): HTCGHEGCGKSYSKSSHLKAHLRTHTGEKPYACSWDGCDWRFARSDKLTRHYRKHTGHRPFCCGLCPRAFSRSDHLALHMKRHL

B1: 9xG (CDA-GGG) (dsDNA)
DNA 1: AGCTAAGGGGGGGGGCA
DNA 2: AGCTTGCCCCCCCCCTT
As a reminder, the Kd is the equilibrium constant for the complex coming apart. A lower Kd goes with a tighter complex. Take B1: the Kd with CDA-ZnF-KLF1 was 0.696 ± 0.0711 µM; with WT-ZnF-KLF1, about 4.99 µM.
